Source: the nanobody polyreactivity screen of Harvey et al. (2022)

Test: yeast display, Sf9 membrane polyspecificity reagent, FACS + sequencing; frameworks hold sequencing errors
How it was run: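 Synthetic nanobody libraries on Saccharomyces cerevisiae BJ5465 were galactose-induced for 36–48 hours, stained 1 hour at 4 °C with 10% biotinylated, detergent-solubilized Sf9 membrane reagent and enriched on streptavidin microbeads. FACS then separated cells into low and high (top ~1%) gates by anti-HA (expression) and streptavidin (reagent binding) fluorescence. Genes were colony-PCR amplified, MiSeq 2 × 250 sequenced and CDR-length filtered. A clone's polyreactivity label is that of its gate of origin.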

Sequence | polyreactivity (PSR sort gate)
QVQLEESGGGLVQAGGSLRLSCAASGRTFYPNAMGWYRQAPGKERELVAAITRSGGRTYYADSVKGRFTISRDNAYYTVYLQMNSLKPEDSAVYYCNADLYYLYYKYEYWGQGTQVTVSS | low polyreactivity
QVQLVESGGGLVQAGGSLRLSCAASGSTFVHYAMGWYRQAPGKERELVADITTGDITNYADSVKGRFTISRDNAKNTVYLQMNSLKPEDTAVYYCAVDHQNSPFHVGRDEYWGQGTQVTVSS | low polyreactivity
QVQLVESGGGLVQAGGSLRLSCAASGITFRLYAMGWSRQAPGKEREFVAAISRRGGSTYYADSVKGRFTISRDNAKNSVYLQMNSLKPEDTAVYYCARYGLVYALGYWGQGTQVTVSS | high polyreactivity
QVHLVESVGGLVQAGGSLRLSCAASGSIFYYNAMGWYRQAPGKERELVAAISSGGSTNYADSVKGRFTISRDNAKNTVYLQMNSLKPEDTAVYYCATGWSWYHPDYDYWGQGTQVTVSS | low polyreactivity
QVQLVESGGGIVQAGVSLRLSCAASGSTFVRYAMGWYRPAPGKERELVAAISGGGSTSYADSVKGRFTISRDNAKNTVYLQMNSLKPEDTAVYYCAAEKYRWENDAYQYYTFDYWGQGTQVTVSS | low polyreactivity
QVQLVESGGGLVHAGGSLRLSCADSGSTLGSNAMGWYRQAPGKERELVAAITWSGGTTYYADSVKGRFTISRDNAKNTVYLQMNSLKPEDTAVYYCATGQSVIYRYEYWGQGTQVTVSS | low polyreactivity
QVQLVESGGGLVQAGGSLRLSCAASGIFSRYAMGWYIQAPGKERELVAAISSGDSTNYADSVKGRFTISRDNAKNTVYLQMNSLKPEDTAVYYCATERSHLATGQGYYYVQTFYYWGQGTQVTVSS | low polyreactivity
QVQLVESGGGLVQAGGSLRLSCAPSGITFQRYVMGWYRQAPGKERELVAAISFSGSSTYYADSVKGRFTISRDNAKNTVYLQMNSLKPEDTAVYYCAADGSVPKYVPYPRYYGYGYWGQGSQVTVSS | high polyreactivity
QVQLVESGGGLVQAGGSLRLICAASGFIFSYYAMGWYRQAPGKERELVAAISKTGGNTYYADSVKGRFTISRDYAKNTVYLQMNSLKPEDTAVYYCNALRGDWRDMGYWGQGTQVTVSS | high polyreactivity
QVQLVESGGGLVQAGGRLRLSCADSGRIFLYYAKGWYRQAPGKEPELVAAISGGGGRTYYADSVKGRFTISRDNAKNTVYLQMNSLKPEDTAVYYWAAGVYTGQHEFDYWGQGTQVTVSS | low polyreactivity
QVQLVESGGGLVQAGGSLRLSCAASGRTFQTYARGWYRQAPGKERELVAAISKSGGGTYYADSVKGRFTISRDNAKNTVYLQMNSLKPEDTAVYYCATAGYHYRAWGGRYDYWGQGTQVTVSS | high polyreactivity
QVQLVESGGGLVQAGGSLRLSCAASGRTFYYAMGWYRPAPGKERELVAGITWSGGSTYYADSVKGRFTISRDNAKNTVYLQMNSLKPEDTAVYYCNAVYRYRTYRYDYWGQGTQVTVSS | high polyreactivity
QVQLVESGGGLVQAGGSLRLSCASSGSILTSYAMGWYRQAPRKERELVASIDWSAGTTYYADSVKGRFTISRDNAKNTVYLQMNSLKPEDTAVYYCGKLEFLSGYPYRPEYGSWGQGTQVTVSS | low polyreactivity
QVQLVESGGGLVQAGGSLRLSCAASGSTFKINALGWYIQAPGKERELVALIRASGASTYYADSVKGRFTISRDNAKKTVYLRMNILKPEDTAVYYCAATTRGYKWVGRDYDYWGQGTQVTVSS | high polyreactivity
QVQLVESGGGLVQAGGSLRLSCAASGRIFGQNAMGWYRQAPGKERELVAAITGSGGRTYYADSVKGRFTISRDNAKNTVYLQMNSQKPEDTAVYYCAVRVTSYYRTMDYWGQGTQVTVSS | low polyreactivity
QVQLVESGGGLVQAGGSLRLSCAASGRIFTYNAMGWSRQAPGKERELVATITNGGRTYYADSVKGRFTISRDNAKNTVYLQMNSLKPEDTAVYYCNAGYITYWYAVFYQIDDYWGQGTQVTVSS | low polyreactivity
QFQLVESWGGLVQAGGSLRLSCAASGTMGWYRQAPVKERELVAAISQSGGSTYYADSVKGRFTISRDNAKNTVYLQMNSLKPEDTAVYYCAVDPLYGDPRRDYWGQGTQVTVSS | low polyreactivity
QVQLVQSGGGLFQAGGSLRLSCAASGRTFEPNAMGWYRQAPGKERQLVAAITNGGSTSYADSVKGRFTISRDNAKNSVYLQMNSLKPEDTAVYYFAGDLGRNLLHTYYYWGQGTQVTVSS | low polyreactivity
QVQLVESGGGLVQAGGSLRLSCAASGFIFGTYAMGWYRQAPGKERELVAAISRSGGSTSYADSVKGRFTISRDNAKNTVYLQMNSLKPEDTAVYYCNKRLLRFPYWGYDYWGQGTQVTVSS | high polyreactivity
QVQIVESGGGLVQAGGSLRLSCAASGGTFPAYAMGWYRHAPGKERELVAAISDDDSTYYADSVKGRFTISRDNAKNTVYLQKNSLKPEDTAVYYCNVEYWYYPSVEYSWTAYDYWGQGTQVTVSS | low polyreactivity
QVQLVESGGGLVQAGGSLRLSCAASGFIFDYNVMGWYRQAPGKKGSWVAAISWSGGSTYYADSVKGRFTISRDNAKNTVYLQMNSLKPEDTAVYYCAARGTSTYRGTGRYDYWGQGTQVTVSS | high polyreactivity
QVQLVESGGGLVQAGGSLRLSCAASGRIFKYYAMGWYRPAPGKERELVAAISRSSGRTYYADSVKGRFTISRDNAKNTVYFQMNSLKPEDTAVYYCNALPSTVYLTYDYWGQGTQVTVSS | high polyreactivity

Sequence | polyreactivity (PSR sort gate)
QVQLVESGGGLVQAGGSLRLSCAASGSTFRYYVMGWYRQAPGKERELVAAISSSGGSTYYADSVKGRFTISRDNAKNTVYLQMNSLKPEDTAVYYCARDKGYVSYRYNYWGQGTQVTVSS | high polyreactivity
QVQLVESGGGLVQAGGSLRLSCAASGFTFYRNARGWYRQAPGKERELVAAISISGGSTYYADSVKGRFTISRDNAKNTVYLQMNSLKPEDTAVYYCAAYYYRDRYSRVKVTYWGQGTQVTVSS | high polyreactivity
QVQLVESGGGLVQAGGSLRLSCAASGSIFAGNAMGWYRQAPGKERELVAAISRRGGSTYYADSVKGRFTISRDNAKNTVYLQMNSLKPEDTAVYYCNALLRYAYHAAYGYWGQGTQVTVSS | high polyreactivity
QVQLVESGGGIVQAGGSLRLSCAASGSIFIDYAMGWYRQAPGKERELVAAISWRGGSTYYADSVKGRFTISRDNAKNTVFLQMIRLKPEDTAVYYCAGARRSKRHEYYLGQGTQVTVSS | high polyreactivity
QVQLVESGGGLVQPGGSLRLSCAASGITFIPNALGWYRQAPGKEREFVAGITWSGGRTYYADSVKGRFTISRDNATNTVYLQMNSLKPEDTAVYYCAAEPPTYKLLDFWGQGTQVTVSS | low polyreactivity
QVQLVESGGGLVQAGGSLRLSCAASGRTFYLYAMGWYRQAPGKERELVDTITESVGNTYYADSVKGRFTISRDNAKNTVYLQMNSLKPEDTAVYYCAATYKYYLYQPKTLFREGDYWGQGTQVTVSS | low polyreactivity
QVQLVESGGGLVQAGGSLRLSCAASGGIFYRYAMGWYRQAPGKERELVAAITRSGANTYYADSVKGRFTISRDNAKNTVYLLMNSLKPEDTAVYYCNARSYLYYSGQYDYWGQGTQVTVSS | high polyreactivity
QVQLVESGGGLVQARGSLRLSCAASGFTFQNNAMGWYRQAPGKERELVAAISRSGGSTYYADSVKGRFTISRDNANITVYLQMNSLKPEDTAVYYCAKSSGTLWITKYDYWGQGTQVTVSS | low polyreactivity
QVQLVETGGGLVQAGGSLRLSCAASGSTFWYNAMGWYRQAPGKERELVAAISRSGATTYYADSVKGRFTISRDNAKNTVYLQMNSLKPEDTAVYYCNAVISPSSYVRNSDYWGQGTQVTVSS | low polyreactivity
QVQLVESGGGLVQAGGSLRLSCAASGYIFRYYAMGWYRQAPGKEREFVAAISRNGGSTYYADSVKGRFTISRDNAKNTVYLQMNSLKPEDTAVYYCNKRVGFLYKYDYWGQGTQVTVSS | high polyreactivity
QVQLVESGGGLVQAGGSLRLSCAASGGIFDRYAMGWYRQAPGKERELVAAITSGGSTNYADSVKGRFTISRDNAKNTVYLQMNSLKPEDTAVYYCNADLGILSGVAEGPTFREYDYWGQGTQVTVSS | low polyreactivity
QVQLVESGGGLVQAGGSLRLSCAASGITFVRYAMGWYRQAPGKERELVAAISSGGSTHYADSVKGRFTISRDNAKNTVYLQMNSLKPEDTAVYYCAAQWTESSLYRFGYLGQGTQVTVSS | high polyreactivity
QVQLVESGGGLVQAGGSLRLSCAASGSTFKKYAMGWYRLAPGKERELVAAITGSGGRTYYADSVKGRFTISRDNAKNTVDLQMNSLKPEDTAVYYCAKLNNYGYDYWGQGTQVTVSS | high polyreactivity
QVQLVESGGGLVQAGGSLRLSCAASGSTLRGYTMGWYRQAPGKERELVAAISWSGASTYYADSVKGRFTISRDNAKNTVYLQMNSLKPEDTAVYYCYRAGRYVREYTVDYWGQGTQVTVSS | high polyreactivity
QVQLVESGGGLVQAGGSLRLSCAASGFIFTIYAMGWYRQAPGKERELVAAISSGGSTTYADSVKGRFTISRDNAKNTVYLQMNSLKPEDTAVYYCNAGVDPFGSLLPFTDQYDYWGQGTQVTVSS | low polyreactivity
QVQLVESGGGLVQAGGSLRLSCAASGRTFGRYSMGWYRQAPGKERELVAAISYSTDSTYYADSVKGRFTISRDNAKNTVYLQMNSLKPEDTAVYYCAALGYHRYRNYDYWGQGTQVTVSS | low polyreactivity
QGQLVESGGRLVQAGGSLRVSCAASGLTFNYYAMRWYRPAPGKERELVASISRSGGSTYYADSVKGRFTISRDNAKNTVYLQMNSLKPVDTAVYYCAAYRRRTYAVNKEGGYWGQGTQVTVSS | high polyreactivity
QVQLVESGGGLVQAGGSLRLSCAASGRILYYYAMGWYRQAPGKERELVAAINSSGGSTYYADSVKGRFTISRDNAKNTVYLQMNSLKPEDTAVYYCAAVRSKLYYYWGQGTQVTVSS | high polyreactivity
QVQLVESGGGLVQAGGSLRLSSAASGSIFYRYAMGWYRQAPGKERELVAVISRGGSTNYADSVKGRFTISRDNAKNTVYLQMNSLKPEDTAVYYCAAGGYSKGDYWGQGTQVTVSS | high polyreactivity
QVHLVESGGGLVQAGGSLRLSCAASGYVMGWYRQAPGKERELVAAITRGTSTYYADSVKGRFTISRDNAKNTVYLQMNSLKPEDTAVYYCAARTTSGEWPPGNIGTYLYDYWGQGTQVTVSS | low polyreactivity
QVQLVESGGGLVQAGGSLRLSCAASGFTFTWYAMGWYRQAPGKERELVASISRSGGSTYYADSVKGRFTISRDNAKNTVYLQMNSLKPEDTAVYYCAAVSRTRSYDYWGQGTQVTVSS | high polyreactivity
